From the nanobody polyreactivity screen of Harvey et al. (2022)

Test: yeast display, Sf9 membrane polyspecificity reagent, FACS + sequencing; frameworks hold sequencing errors
Method in brief: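 Nanobodies came from a synthetic yeast display library in Saccharomyces cerevisiae BJ5465, induced with galactose for 36–48 hours and stained for 1 hour at 4 °C with 10% biotinylated, detergent-solubilized Sf9 membrane reagent. Cells were enriched on streptavidin microbeads and then FACS-sorted, with low and high (top ~1%) gates set on anti-HA fluorescence for expression and streptavidin fluorescence for reagent binding. Each polyreactivity label reflects the gate a clone came from. Genes were amplified by colony PCR, sequenced by MiSeq 2 × 250 and filtered by CDR length.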

Row | Sequence | polyreactivity (PSR sort gate)
1 | QVQHVESAGGLVQAAGSLRLSCAASGLSYSRYAMGWYRQAPGKERELVAAITWSGSSTYYADSVKGRFTISRDNAKNTVYLQMNSLKPEDTAVYYCAGRYGYSRGPYYRSDYWGQGTQVTVSS | high polyreactivity
2 | QVQLVESGGGLVQAGGSLRLSCAASGLTFTRYAMGWYIQAPGKEREMVAAISKNGGSTYYADSVKGRFTISRDNAKNTVYLQMNSLKPEDTAVYYCAARRSTSYPAGYDYRGQGTQVTVSS | high polyreactivity
3 | QVQLVESGGGLVQAGGSLRLSCAASGRTFPRNAMGWYRQAPGKERELVAAISYGGGRTYYADSVKGRFTISRDYAKNTVYLQMNSLKPEDTAVYYCATVRRTDYPLGMDYWGHGTQVTVSS | high polyreactivity
4 | QFQLVESGGGLVQAGGSLRLSCAASGSIFGPYAMGWYRQAPGKEREFVAAISRSGTRTNFADSVKGSFTISRDSAKNTVYLQMNSLKPEDTAVYYCATAAFIVGTSRTYDYWGQGTQVTVSS | high polyreactivity
5 | QVQLVESGRGLVQAGGSLRLSCAASGRTFPVYAMGWYRQAPGKERELVAAITYSGGSTSYADSVKGRFTISRDNAKNTVYLQMNSLKPEDTAVYYCAADRAYYSRGIGSVGYYYWGQGTQVTVSS | low polyreactivity
6 | QVQLVESGGGLVQAGGSLRLSCAASGNTFYGYAMGWNRQAPGKERELVASITLSGDSTYYADSVKGRFTISRDNEKNTVYLQMNSLKPEDTAVYDCAGVYTYPLGYYHYTYDYWGQGTQVTVSS | low polyreactivity
7 | QVQLVESGGGLVQAGGSLRLSCADSGSTLRRNAMGWYRQAPGKERELVAAISRTGASTYYADSVKGRFTISRDNAKNTVYLQMNSLKPEDTAVYYCAARANYIFFGMDYWGQGTQVTVSS | high polyreactivity
8 | QVQLVESGGGLVQAGGSLRLSCAASGSIFFDYAMGWDRQAPGKERQLVAAISWTGGSTYYADSVKGRFTISRDNAKNTVYLQMNSLKPEDTAVYYCNARYYSYSSPYDYWGQGTQVTVSS | high polyreactivity
9 | QVQLVESGGGLVQAGGSLRLSSAASGFIFEDYAMGWYREAPGKARELFAAISRRGGSTYYADSVKGRFTISRDNAQNTVYLQMNSLKPEDTADYYCAARKRYRPGERYEYWGQGTQVTVSS | high polyreactivity
10 | QVQLVESGRGLVQAGGSLRLSCAASGRIFYYNDMGWYRQAPGNERELFAAITWTDDGTYYADSVKGRFTISRDNAKNTVYLQMNSLKPVDTAVYYCAKDYNRTVEDWAKVNGFDFWGQVTQVTVSS | low polyreactivity
11 | QVQLVESGGGLVQAGGSLRLSCAASGRIFGVNAMGWYRQAPGKERELVADISSGGSTYYADSVKGRFTISRDNAKNTVYLQMNSLKPEDTAVYYCAKAPRGRGLYDYWGQGTQVTVSS | low polyreactivity
12 | QVQLVESVGGLVQAGGSLRLTCAASGFTFGPYAMGCYRQAAGKERELVAAITNRGGSTYADSVKGRFTISRDNAKNTVYLQMNSLKPEDTAVYYCATVSALEYNYWGQGTQVTVSS | low polyreactivity
13 | QVQLVESGGGLVQAGGSLRLSCAASGFTFAYYAMGWYRPAPGKERELVAAISSGGSTDYADSVKGRFTISRDNAKNTVYLQMNSLKPEDTAVYYCNAVVVRLWYDYDYWGQGTQVTVSS | low polyreactivity
14 | QVQLVESGGGLVQAGGSLRLSCAASGSIFLSYDMGWYRQAPGKERELVAAITQSGGSTYYADSVKGRFTISRDNAKNTVYLQINSLIPEDTAVYYCAADYGYLPQETYPTYGYYYWGQGTQVTVSS | low polyreactivity
15 | QVQLVESGGGLVQAGGSLRLSCAASGSIFGENARGWYRQAPGKERELVAAITSGGSTYYADSVKGRFTISRDNAKNTVYLQMNSLKPVDTAVYYCAASGRVGPGYWYDSWGQGTQVTVSS | low polyreactivity
16 | QVQLVESGGGLVQAGGSLRLSCAASGNIFAYYAMGWYRQAPGKEREFVAAIRSSGVSTYYADSVKGRFTISRDNAKNTVYLQMNSLKPEDTAVYYCAADSITGGWLIVSPPYNYTYDYWGQGTQVTVSS | low polyreactivity

Row | Sequence | polyreactivity (PSR sort gate)
17 | QVQLVESGGGLVQAGGSLRLSCDASGSIFGSYAMGWYRQAPGKEWELVAAISRRGGSTYYADSVKGRFTISRDNAKNTVYLQMNSLKAEDTAVYYCARRDYGVLNKGLGQEGDYWGQGTQVTVSS | low polyreactivity
18 | QVQLVESGGGLVQAGGSLRLSCAASGIIFTYYAMGWDRQAPGKERELVARISSSGGRTYYADSVKGRFTISRDNAKNTVYLQMNSLKPEDTAVYYCAAAIVSYGRNDYWGQGTQVTVSS | high polyreactivity
19 | QVQLVESGGGLVQAGGSLRLSCAASGSTFASNAMGWYRQAPGKERELVAAISKRGGSTYYADSVKGRFTISRDNAKNTVYLQMNSLKPEDTSVYYCNADWTRSQYDYWGQGTQVTVSS | high polyreactivity
20 | QVHLVESGGVLVQAGGSLRLSCAASGSIYESYVMGWYRQAPRKERELVASISSGGSTYYADSVKGRFTISRDNAKNTVYFQNNSLKQEDTAGYYCAANYDGGYLDYEAGYRLEYDFWGQGTQVTVSS | low polyreactivity
21 | QVQLQGSGGGLAQAGDSLRLSCAASGTIFSEYNNGLVSPGAGQRTRTCCRYWCWGNTYYADSAKGRFTTSRDNAKNTVYLQKHSLKPADTAVYYCAFNRPFPSRHIYRGQGTQVTVSS | high polyreactivity
22 | QVQLVESGGGVVQAGGSLRLSCAASGRIFNWYAMGWYRQAPGKEREFVAAINWNGDSTHYADSVKGRFTISRDNAKNTVYLLMNSLKPEDTAVYYCNARVFVTRSYYWGQGTQVNVSS | low polyreactivity
23 | QVQLVESGGGLVQAGGSLRLSCAASGRTFTYNAMGWYRQAPGKERELVASIRRSGTITYYADSVKGRFTISRDNAKNTVYLQMNSLKPEDTAVYYCAARYPWYRYYSWGQGTQVTVSS | high polyreactivity
24 | QVQLVESGGGLVQAGGSLRLSCAASGIIFYHYALGWYRPAPGKERELVAAISRRGGTTYYADSVKGRFTISRDNAKNTVYLQMNSLKPEDTAVYYCAADYGSYGLYRGYYYWGQGTQVTVSS | high polyreactivity
25 | QVQLVESGGGLVQAGGSLRLSCAASGSLFGRYAMGWYRQAPGTEREFVAAISRGATNTYYADSVKGRFTISRDNAKNTVYLQMNSLKPEDTAVYYCARTQRYDYGYDYWGQGTQVTVSS | low polyreactivity
26 | QVQLVESGGGLVQAGGSLRLSCAASGSIFGRYVKGWYRQAPGKERELVATISSGGSTYYADSVKGRFTISRDNAKNTVYFQMISLKPEDTAVYYCAASYSRFVDWIGDPGYDYWGQGTQVTVSS | low polyreactivity
27 | QVQVVESGGGFVQAGGSLRVSCAASGSTFRANAMGCYTQAPGKERELVAAISQSGGITYYADSVKGRFTISRDIAKNTVYLQMNSLKPEDTAVYYCAAKIALDNDYWGQGTQVTVSS | high polyreactivity
28 | QVQLVESGGGLVQAGGSLRLSCAASGSIFDGNDMGWYRQAPGKEREKVAAITIGDASRFYADSVKGRFTISRDNAKNTVYFQMNRLKPEDTAVYYCAADRPGLEDDPIYDYWGQGTQVTVSS | low polyreactivity
29 | QVQLVESGGGLVQAGGSLRLSCAASGGTFVGNAMGWYRQAPGKERELVAAISTNSGSTYYADSVKGRFTISRDNAKNTVYLQMNSLKPEDPAVYYCATRNSSKRRGYYYWGQGTQVTVSS | high polyreactivity
30 | QVQLVESGGGLVQAGGSLRLSCAASGLIFGYNAMGWYRQAPGKERELVAAISSSGGSTSYADSVKGRFTISRDNAKNTVYLQMNSLKPEDTAVYYCAAKPGRYADYDYNSWGQGTQVTVSS | low polyreactivity
31 | QVQLVESGGGLVQAGGSLRLSCAASGFTFGPYAMGWSRQAPGKEREFVAAITSSGGSTYYADSVKGRFTISRDNAKNTVYLQMNSLKPEDTAVYYCNARSRGYVGKTPRRYYYWGQGTQVTVSS | high polyreactivity
